The assay deals with BTN3A1 BFI (JM+B30.2) (Homo sapiens, UniProt O00481). The experiment in a line: ITC.

By Kd is commonly meant the constant that tells how readily two partners part at equilibrium. Lower therefore signals tighter binding.

Sequence of BTN3A1 BFI (JM+B30.2) (O00481 272-513): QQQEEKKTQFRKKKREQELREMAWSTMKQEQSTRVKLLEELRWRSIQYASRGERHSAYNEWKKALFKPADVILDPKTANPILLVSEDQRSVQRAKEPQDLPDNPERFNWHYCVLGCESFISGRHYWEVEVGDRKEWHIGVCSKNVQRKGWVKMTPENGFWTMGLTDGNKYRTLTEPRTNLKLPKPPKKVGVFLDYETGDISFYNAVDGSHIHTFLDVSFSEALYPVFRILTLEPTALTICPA

B1: BTN2A1 ID271 (JM+B30.2) (protein)
chain: KLQKEKKILSGEKEFERETREIALKELEKERVQKEEELQVKEKLQEELRWRRTFLHAVDVVLDPDTAHPDLFLSEDRRSVRRCPFRHLGESVPDNPERFDSQPCVLGRESFASGKHYWEVEVENVIEWTVGVCRDSVERKGEVLLIPQNGFWTLEMHKGQYRAVSSPDRILPLKESLCRVGVFLDYEAGDVSFYNMRDRSHIYTCPRSAFSVPVRPFFRLGCEDSPIFICPALTGANGVTVPEEGLTLHRVGTHQSL
modifications: HMBPP
B1 registered a Kd of 0.78 µM.

B2: BTN2A1 ID271 (JM+B30.2) (protein)
chain: B1 chain
modifications: 4-M-HMBPP
As for B2, the Kd came out at 190 µM.

The values above are taken from PMC10665462 (2023).
